The source of these data is paper PMC3722453, “N-truncated amyloid β (Aβ) 4-42 forms stable aggregates and induces acute and long-lasting behavioral deficits” (Acta Neuropathologica, 2013).

Data set [1] has as its system C57BL/6 J wildtype mice. Description: Y-maze working memory after intracerebroventricular injection of soluble Aβ. In kind it is in vivo, mouse. Particulars: 50 pmol in 1 μL icv, male C57BL/6 J mice 12-week old, n = 6 per group, Y-maze on day 4, 5-min session. The protocol: Male C57BL/6 J mice (12-week old, Janvier, Le Genest-St-Isle, France; n = 6 per treatment group) were housed five to six per cage with free access to food and water, and were kept in a constant environment (22 ± 2 °C, 50 ± 5 % humidity, 12-h light cycle). Under anesthetization, freshly prepared Aβ peptides (50 pmol in 1 μL; 0.1 M phosphate-buffered saline (pH 7.4)) or vehicle (0.1 M phosphate-buffered saline) were injected into the right ventricle, with stereotaxic coordinates from the bregma (AP −0.22, L −1.0 and D 2.5 in mm). Intracerebroventricular (icv) injections were made using a 10-μl Hamilton microsyringe fitted with a 26-gauge needle. Four days following icv infusion of Aβ peptides, working memory was assessed using the Y-maze test.
Immediate spatial working memory performance in male C57BL/6 J wildtype mice (12-week old, Janvier, Le Genest-St-Isle, France; n = 6 per treatment group) was assessed by recording spontaneous alternation behavior in a Y-maze as described previously. The Y-maze task was carried out on day 4 after soluble Aβ application. The maze was made of opaque plexiglas and each arm was 40-cm long, 16-cm high, 9-cm wide and positioned at equal angles. Mice were placed at the end of one arm and allowed to move freely through the maze during a 5-min session. The series of arm entries were recorded visually and arm entry was considered to be completed when the hind paws of the mouse were completely placed in the arm. Alternation was defined as successive entries into the three arms on overlapping triplet sets. The percentage alternation was calculated as the ratio of actual (total alternations) to possible alternations (defined as the number of arm entries minus two), multiplied by 100.

Data set [2] can be described thus: 1D 1H NMR monomer consumption assay. In kind it is physicochemical. Conditions: 40 μM peptide, phosphate buffer 20 mM pH 7.2, 25 mM NaCl; after 14 h of incubation at 37 °C; methyl and aromatic 1H signals normalised to DSS. The protocol: 1D ^1H NMR spectra of the five different Aβ peptides were measured at 5 °C at 400 MHz ^1H Larmor frequency. The samples contained 40-μM peptide in phosphate buffer (20 mM, pH 7.2) with 25-mM NaCl. The aggregation propensity of the Aβ variants were then studied through real-time 1D ^1H NMR experiments at 37 °C continued for 14 h at 1-h intervals. The integrated intensity of ^1H peaks at two regions (0.50–1.05 ppm, 6.50–8.00 ppm), after chemical shift using DSS ([…]) as a reference standard, was then calculated. After normalization by the integrated intensity of the DSS peak at 0 ppm, the relative intensity of the peptide ^1H peaks was used to probe peptide monomer consumption during the early phases of peptide aggregation.

Data set [3] can be described thus: Dynamic light scattering (DLS) of peptide supernatants. Type of data set: physicochemical. Conditions: DLS at 20 °C, 0.2 mg/mL, phosphate buffer 20 mM pH 7.4, 25 mM NaCl; after 24 h at 37 °C without agitation; supernatant after 16,000g 15 min.
Experimental: DLS experiments were performed at 20 °C on a DynaPro Titan (Wyatt Technology Corp., CA) instrument with a scattering angle of 90°. The samples were centrifuged at 16,000g for 15 min, and then the supernatant was taken for DLS measurements. The “monomeric” samples were prepared freshly in phosphate buffer (20 mM, pH 7.4) containing 25 mM NaCl at a peptide concentration of 0.2 mg/mL. The aggregated samples were prepared after incubation at 37 °C for 24 h, without further promotion of aggregation by agitation. The size distribution was determined by a constrained regularization method. The reported scattering intensities are from three separate measurements of the same sample.
Data set [4] can be described thus: SDS-PAGE Western blot of Aβ peptides (stable aggregates). Type of data set: physicochemical. Conditions: 1 μg peptide, reducing conditions, antiserum 24311; for higher molecular weight oligomers on SDS-PAGE after aging: after 1 and 3 days of aging. The protocol:
Lyophilized Aβ peptides were dissolved in 10-mM NaOH at a concentration of 1 mg/mL, aliquoted in 50 μL volumes, flash-frozen in liquid nitrogen and stored at −80 °C until use. For Western blot analysis under reducing conditions, 1 μg peptides were loaded on 4–12 % VarioGels (Anamed), transferred to 0.45 μm nitrocellulose membranes and detected using the primary antiserum 24311 (pan-Aβ, 1:500) or monoclonal antibody 4G8 (Aβ17-24, Signet; 1:500). For Western blotting of mouse brain, whole brain SDS lysates were used. Running and transfer buffers were applied according to the manufacturer. The blots were developed using enhanced chemiluminescence according to the manufacturer (Roth). Horse radish conjugated swine anti-rabbit antibody was used as a secondary antibody (1:3,000, Dianova).
(In general: A western blot detects proteins with antibodies after separation by electrophoresis.)

For data set [5], the system named is primary cortical neurons. The experiment in a line: Calcein-AM cell viability assay. Type of data set: cell-based, Wistar rat. Particulars: for effect on cell viability: 24 h incubation with freshly prepared peptide at different concentrations, calcein-AM fluorescence; for toxicity profile compared to vehicle control: ANOVA with Bonferroni multiple comparisons. The protocol: Cortical neurons from embryonic day 16–17 Wistar rat fetuses were prepared as previously described. In brief, dissociated cortical cells were plated at 50,000 cells/well in 48-well plates precoated with 1.5 mg/mL polyornithine (Sigma). Cells were cultured in a chemically defined Dulbecco’s Modified Eagle’s/F12 medium free of serum (Gibco) and supplemented with hormones, proteins and salts. […] At 6 DIV, the medium was removed and cortical neurons were incubated for 24 h with vehicle (cell culture medium) or Aβ peptides (dissolved in cell culture medium) at the indicated concentrations.
Following a 24-h incubation of primary cortical neurons with Aβ peptides, cell viability was determined using a calcein-AM assay (Invitrogen, Molecular Probes). Briefly, cells were washed twice with PBS and incubated to protect from light for 30 min at room temperature in the presence of 2 μM calcein-AM solution prepared in PBS. Cells were then washed twice with PBS and incubated for 15 min at room temperature in PBS containing 1 % Triton X-100 (v/v). The level of calcein fluorescence was monitored by fluorescence emission at 530 nm after exciting at 485 nm, using a Fluostar microplate reader (BMG-Labtechnologies, France).

A short description of data set [6]: Far-UV circular dichroism (CD) spectroscopy. Type of data set: physicochemical. Conditions: 0.2 mg/mL, phosphate buffer 20 mM pH 7.2, 20 °C, monomeric state. The protocol:
Samples of 0.2 mg/mL peptide concentration in phosphate buffer (20 mM, pH 7.2) were prepared. The far-UV CD measurements were conducted on a Chirascan CD spectrometer, with a 1-mm path length quartz cell, 1-nm bandwidth and 8-s collection time for each point at 0.5 nm steps between 190 and 260 nm. The buffer spectrum was also measured and subtracted from the spectra of Aβ peptides. The temperature-dependence of secondary structure was studied through far-UV measurements at three different temperatures, 20, 30 and 40 °C. The reversibility of temperature-induced changes was checked with an additional CD spectrum measured after cooling down from 40 to 20 °C. The CD spectrum of the cooled sample was taken after 5 min of equilibration at 20 °C. The 0.2 mg/mL Aβ samples in phosphate buffer (20 mM, pH 7.2) containing 25 mM NaCl were incubated at 37 °C for 3 days with gentle stirring.

Data set [7] can be described thus: Transmission electron microscopy (TEM) of aggregates. Type of data set: physicochemical. Particulars: 0.1 mg/mL, HEPES 25 mM pH 7.4, 50 mM NaCl, 3 days at 37 °C with gentle stirring. The protocol: Peptide samples of 0.1 mg/mL concentration in HEPES buffer (25 mM, pH 7.4, 50 mM NaCl) were incubated at 37 °C with gentle stirring. After 3 days of incubation, samples were diluted, deposited onto carbon-coated copper mesh grids and negatively stained with 2 % (w/v) uranyl acetate. The excess stain was washed away, and the sample grids were allowed to air-dry. The samples were then viewed with a 120-kV transmission electron microscope.

Consider “Aβ1-42: full-length amyloid β 1-42, purchased from PSL [reference compound]”, for which, in data set [1], the “working memory (Y-maze alternation rate)” value is “performed at chance level and showed a significant and robust deficit in working memory”. In data set [2], the “loss of initial 1H NMR signal intensity (monomer consumption)” value (shortened to “loss of initial 1H NMR signal intensity”) is reported as “around 5%”. In data set [3], the “hydrodynamic radius of small (main) aggregates” value is 5–10 nm. Further, in data set [4], the “higher molecular weight oligomers on SDS-PAGE after aging” value (“higher molecular weight oligomers” for short) is reported as “higher molecular weight oligomers in addition”; the “species on SDS-PAGE, freshly dissolved peptides” value (from here on “species on SDS-PAGE”) was “monomers and aggregates most likely representing trimer/tetramers”. Moreover, in data set [5], the “effect on cell viability” value is “dose-dependent reduction in cell viability”. In data set [5] (24 h incubation, 5 μM, calcein-AM), the “toxicity compared with Aβ4-40 at 5 μM” value is “more potent than Aβ4-40”. For the same substance, in data set [5] (24 h incubation, calcein-AM), the “toxicity profile compared to vehicle control” value is “strongest toxic effect”. The “secondary structure by far-UV CD spectrum” value (“secondary structure” below) in data set [6] was “unstructured in the monomeric state”.
As for “Aβ4-38: amyloid β (Aβ) variant, N-truncated, purchased from PSL”, the “working memory (Y-maze alternation rate)” value in data set [1] was “behaved like vehicle controls and learned well”. Further, the “loss of initial 1H NMR signal intensity” value in data set [2] was “rose slightly in intensity”. Further, in data set [7], the “aggregate morphology by TEM” value was “clumps of fibrillar aggregates”. Further, in data set [4], the “higher molecular weight oligomers” value is listed as “not” and the “species on SDS-PAGE” value is on record as “monomers, dimers but no other oligomers”. For the same substance, the “effect on cell viability” value in data set [5] is “dose-dependent reduction in cell viability”. Besides, in data set [5] (24 h incubation, calcein-AM), the “toxicity profile compared to vehicle control” value is “only toxic at 10 μM”. Also, the “secondary structure” value in data set [6] is “unstructured in the monomeric state”.
In the case of “Aβ4-40: amyloid β (Aβ) variant, N-truncated, purchased from PSL”, the “working memory (Y-maze alternation rate)” value in data set [1] was “significantly reduced”. The “loss of initial 1H NMR signal intensity” value in data set [2] is recorded as “around 5%”. Also, in data set [7], the “aggregate morphology by TEM” value is on record as “clumps of fibrillar aggregates”. Further, in data set [4], the “higher molecular weight oligomers” value is on record as “not” and the “species on SDS-PAGE” value is “monomers, dimers but no other oligomers”. In addition, the “effect on cell viability” value in data set [5] was “dose-dependent reduction in cell viability”. Also, the “secondary structure” value in data set [6] is “unstructured in the monomeric state”.
